Experimental data as given in patent US11466255B2, “Methods and compositions for converting non-endocrine pancreatic tissue into insulin-producing cells” (UNIVERSITY OF MIAMI, priority 2015, dated 2022).

Experiments:
Format in all cases: cell-based, human
hNEPT = assay: Immunofluorescence / ImageJ quantification of C-peptide+ cells; conditions: 12 fields/sample, n=3; controls 8.15±0.92%, P<0.0001
Procedure: Immunofluorescence characterization of the insulin-expressing clusters was conducted. To rule out potential false-positives derived from the presence of residual insulin in the culture medium, we stained for C-peptide, which is present in pro-insulin and therefore indicates de novo synthesis of insulin. […] In order to quantify the number of C-peptide+ cells after BMP-7 treatment ImageJ and the FIJI Analyze particles feature was used. Using this software on an average of 12 fields/sample (n=3), the percentage of C-peptide+cells in hNEPT populations after BMP-7 treatment was determined to be 30.43±4.07% vs. 8.15±0.92% in controls (P<0.0001).
IF analysis and confocal microscopy: The present study was conducted on human pancreatic samples from cadaveric organ donors. […]
Imaging analysis: For general quantification purposes (e.g., percentage of C-peptide+ cells) we used ImageJ and the FIJI Analyze particles feature. […] Images were then binarized for quantification. The Watershed function was used on the DAPI channel to separate touching nuclei, which were subsequently counted by the Analyze particle command. Subsequently, we detected nuclei that were overlapping with C-peptide+ areas using the AND operator under the Image calculator feature of FIJI. Finally, we quantified the number of nuclei in the overlap area and calculated the ratio of the overlapping nuclei against the total nuclei.

pure islet preparations = assay: Pure islet preparations treated with BMP-7 (colony formation); conditions: n=3
[1] = system: P2RY1+/ALK3+ sorted cells; assay: Sorted P2RY1+/ALK3+ cells treated with BMP-7 with or without dorsomorphin; conditions: 100 ng/μl BMP-7, qRT-PCR and IF
Procedure: A 2-color FACS selection for dissociated hNEPT (as well as collagenase-digested MPDs) that are positive for the surface markers P2RY1 and ALK3 (Life Span Biosciences) is conducted. This approach has already been successfully tested, as is shown herein. Sorted cells are treated with 100 ng/μl of BMP-7 with or without dorsomorphin, which inhibits BMP signaling. Additional aliquots receive no treatment. […] This is determined by qRT-PCR and IF as above, as well as ultrastructural analyses by TEM.

B1: BMP-7: 35 kDa homodimeric protein of the TGF-β superfamily; FDA-approved agent; human mature chain SEQ ID NO:1/2 (protein, listed as Homo sapiens)
chain: IRSTGSKQRSQNRSKTPKNQEALRMANVAENSSSDQRQACKKHELYVSFRDLGWQDWIIAPEGYAAYYCEGECAFPLNSYMNATNHAIVQTLVHFINPETVPKPCCAPTQLNAISVLYFDDSSNVILKKYRNMVVRACGCH
modifications: homodimer; human mature chain of BMP-7 (NCBI Reference Sequence NM_001719.2) comprising peptide from 293-431
hNEPT
  percentage of C-peptide+ cells in hNEPT populations after treatment: 30.43±4.07%
Pure islet preparations
  colony formation: failed to give rise to colonies
[1]
  expression of endocrine differentiation genes vs. control or BMP-7+dorsomorphin: induces the expression of endocrine differentiation genes
